“Also recorded” adds a separate entry of the source. Marks after values point to notes of the source that are not given here.
What was measured:
[1] = tested on: pts with advanced NSCLC after first-line PT-based chemotherapy; experiment: Phase 1: switch to nivolumab maintenance as monotherapy or with bevacizumab, efficacy (RECIST 1.1); assay type: in vivo, human
Protocol: Pts with no progression within 42 days of completing ≧4 cycles first-line PT-based chemotherapy (±BEV) were assigned to either nivolumab (N) 5 mg/kg IV Q3W+BEV 15 mg/kg IV Q3W (non-squamous [non-sq] pts only; n=12) or N 3 mg/kg IV Q2W monotherapy (sq arm [n===8] or non-sq arm [n=13]) until progression/unacceptable toxicity (treatment beyond progression allowed based on protocol-defined criteria). ORR was evaluated using RECIST 1.1.

PD-1 = molecular target: T1, PD-1 (Homo sapiens, UniProt Q15116); settings: 15 subjects, 0.3 mg/kg to 10 mg/kg, across all doses, cited from earlier work
T1 construct: Receptor-occupancy data from 15 subjects who received 0.3 mg/kg to 10 mg/kg dosing with nivolumab; endogenous in cells
T1 sequence (Q15116 25-288): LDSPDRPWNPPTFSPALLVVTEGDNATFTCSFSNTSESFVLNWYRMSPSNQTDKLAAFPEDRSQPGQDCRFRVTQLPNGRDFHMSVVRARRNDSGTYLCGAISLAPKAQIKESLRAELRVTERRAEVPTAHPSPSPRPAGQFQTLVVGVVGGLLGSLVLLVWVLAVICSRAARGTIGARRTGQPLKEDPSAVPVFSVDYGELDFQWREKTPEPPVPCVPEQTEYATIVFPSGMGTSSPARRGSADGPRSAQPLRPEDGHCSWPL

[2] = tested on: heavily pretreated patients with advanced NSCLC; experiment: CA209-003 phase 1: nivolumab monotherapy, safety

nivolumab
Stable disease as best overall response ([1]; all pts of the treatment): 48%
Median PFS ([1]; non-sq pts): 21.4 weeks
Stable disease as best overall response ([1]; non-sq pts): 46%
Median PFS ([1]; sq pts): 16.0 weeks
Stable disease as best overall response ([1]; sq pts): 50%
Median OS ([1]; switch maintenance): not reached
ORR ([1]; switch maintenance, RECIST 1.1): 10%
mean plateau PD-1 occupancy (PD-1; range 59% to 81%): 72%
mean PD-1 occupancy rate (PD-1; range 70% to 97%): 85%
Patients with any treatment-related select AE, Any Grade ([2]; N = 129): 41 (53) % (n)
Patients with any treatment-related select AE, Grade 3-4 ([2]; N = 129): 5 (6) % (n)
select AE Endocrinopathies, Any Grade ([2]; N = 129): 6 (8) % (n)
select AE Endocrinopathies, Grade 3-4 ([2]; N = 129): 0 % (n)
select AE Gastrointestinal, Any Grade ([2]; N = 129): 12 (15) % (n)
select AE Gastrointestinal, Grade 3-4 ([2]; N = 129): 1 (1) % (n)
select AE Hepatic, Any Grade ([2]; N = 129): 5 (6) % (n)
select AE Hepatic, Grade 3-4 ([2]; N = 129): 1 (1) % (n)
select AE Infusion reaction, Any Grade ([2]; N = 129): 4 (5) % (n)
select AE Infusion reaction, Grade 3-4 ([2]; N = 129): 1 (1) % (n)
select AE Pulmonary, Any Grade ([2]; N = 129): 7 (9)^c % (n)
select AE Pulmonary, Grade 3-4 ([2]; N = 129): 2 (3) % (n)
select AE Renal, Any Grade ([2]; N = 129): 3(4) % (n)
select AE Renal, Grade 3-4 ([2]; N = 129): 0 % (n)
select AE Skin, Any Grade ([2]; N = 129): 16 (20) % (n)
select AE Skin, Grade 3-4 ([2]; N = 129): 0 % (n)
decreased appetite ([2]; NSCLC cohort): 12%
diarrhea ([2]; NSCLC cohort): 10%
fatigue ([2]; NSCLC cohort): 24%
Rate of grade 3-4 treatment-related AEs ([2]; NSCLC cohort (n = 129)): 14%
patients with grade 3-5 treatment-related pneumonitis ([2]; NSCLC cohort, 4 patients): 3%
patients with treatment-related pulmonary events ([2]; NSCLC cohort, 12 patients): 9%
treatment-related deaths ([2]; all associated with pneumonitis): Three
Rate of grade 3-4 treatment-related AEs ([2]; overall study patient population (N = 306)): 17%
maximum tolerated dose ([2]; up to 10 mg/kg every two weeks): without reaching the maximum tolerated does (MTD); also recorded: A maximum tolerated dose was not reached

— US20170158776A1, “TREATMENT OF LUNG CANCER USING A COMBINATION OF AN ANTI-PD-1 ANTIBODY AND ANOTHER ANTI-CANCER AGENT” (Bristol-Myers Squibb Company, priority 2014, published 2017)
